Experimental data as given in publication PMC2691550 (Biochemistry, 2006).

Biological target: the molecule itself
Experiment: crystal structure

B1: Tyrosine phenol-lyase holoenzyme (Citrobacter freundii), in complex with pyridoxal-5′-phosphate and K+ at pH 8.0 (enzyme, UniProt P31013 1-456, looked up)
chain: MNYPAEPFRIKSVETVSMIPRDERLKKMQEAGYNTFLLNSKDIYIDLLTDSGTNAMSDKQWAGMMMGDEAYAGSENFYHLERTVQELFGFKHIVPTHQGRGAENLLSQLAIKPGQYVAGNMYFTTTRYHQEKNGAVFVDIVRDEAHDAGLNIAFKGDIDLKKLQKLIDEKGAENIAYICLAVTVNLAGGQPVSMANMRAVRELTEAHGIKVFYDATRCVENAYFIKEQEQGFENKSIAEIVHEMFSYADGCTMSGKKDCLVNIGGFLCMNDDEMFSSAKELVVVYEGMPSYGGLAGRDMEAMAIGLREAMQYEYIEHRVKQVRYLGDKLKAAGVPIVEPVGGHAVFLDARRFCEHLTQDEFPAQSLAASIYVETGVRSMERGIISAGRNNVTGEHHRPKLETVRLTIPRRVYTYAHMDVVADGIIKLYQHKEDIRGLKFIYEPKQLRFFTARFDYI
modifications: Lys257 Nζ covalently linked to C4′ of pyridoxal-5′-phosphate (internal aldimine)
stoichiometry N: 4
